Tested on: MS2 coat protein
Assay: apparent KD of MS2 coat protein; designed switch direction (-1 OFF switch, 1 ON switch): 1; higher = weaker reporter binding
How it was run: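 Each step of the titration lasted 0.8–1.5 h at the lowest concentration and 10–20 min at the highest. The protein, SNAP-549-labelled MS2 coat protein, went from 0.7 or 1.5 nM doubling to 3 µM over RNA switches transcribed on Illumina chips by stalled E. coli RNA polymerase. Normalised cluster fluorescence was curve-fitted, and the per-design median over clusters is given as apparent KD.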

[1] = input ligand: microRNA oligo, concentration not stated
[2] = Eterna round: R95, input ligand: FMN 200 uM
[3] = Eterna round: R95, input ligand: microRNA oligo, concentration not stated
[4] = Eterna round: R95, input ligand: none

Sequence	apparent KD of MS2 coat protein (input ligand: FMN 200 uM) [nM]	apparent KD of MS2 coat protein [1] [nM]	apparent KD of MS2 coat protein (input ligand: none) [nM]	apparent KD of MS2 coat protein [2] [nM]	apparent KD of MS2 coat protein [3] [nM]	apparent KD of MS2 coat protein [4] [nM]
CUGAGCGAUCUAGGAUAUCACGUCGAAUAGACGUGAGAAGGAGAUCAUAACAUGAGGAUCACCCAUGUAUUACAUGAAGCUCAG [SSNG1/6-A1] (Eterna round: R96, puzzle: Same State NG 1)	13.2	10.4	25.4			
CGUAGGUAGCUGGAGGAUAUUCGAGUGGUAACAUGAGGAUCACCCAUGUGGUGAGAGGAACAUGAGGAGAAGGCUAGCUGCCUGC [JL-ss2-3.15 JL mod] (Eterna round: R96, puzzle: Same State 2)	1290	925	906			
UUGAUAUGCGCAGGAUAUGGUGAGGAUCACCCACUAGAAGGGUGCACAUGAGAAUCGAACAUGAGGAUCACCCAUGUUCUGAGC (Eterna round: R96, puzzle: Same State NG 1)	831	295	1030			
CGUAGGUAGCUGGAGGAUAUUCGAGUGGUAACAUGAGGAUCACCCAUGUGGUGAGAGGAACAUGAGGAGAAGGCUAGCUGCCUGC [JL-ss2-3.15 JL mod] (puzzle: Same State 2)				118	96.2	76.9
GUAGCAUACCGAGGAUAUUCAAACCGGAAACGGACAUGAGGAUCACCCAUGUGGCGAAAGCCUUGGGAGAAGGCGGAAUGCUAC [Xeonanis - 20 Mod76] (Eterna round: R96, puzzle: Same State NG 2)	6.08	21.7	19.1			
AAAAGACAUGAGGAUCACCCAUGUAACGGUCGUCAAGGAUAUGCAUAGGUCCAUUGACCAGCAGAAGGUGAUACCU [Xeanlarace] (puzzle: Same State 1)				400	56.6	38.3
GCCGACUAAUGAGGAUAUGGCACCUUAUUGGUGCCAGAAGGCAUGUCAAUUGACAUGAGGAUCACCCAUGUAUUAUAGUUGGCG [salish99_SSNG1_r04_602] (Eterna round: R96, puzzle: Same State NG 1)	96.5	177	449			
GCGGAGAGGUAAGGAUAUCCAUGGAAGACACAUGAGGAUCACCCAUGUGGGAGGGAAACCAGGAGGGAGAAGGUACCGGGACGC [AK SSNG2-V2-21] (Eterna round: R96, puzzle: Same State NG 2)	11.5	10.4	13.2			
GCACAUGAGGAUCACCCAUGUGCGCUUGAUUGUCCAAGCGCACAGGAUAUACCUCCAAAUGGGAGGUAGAAGGGUGAAAAGAAA [Ravema] (Eterna round: R96, puzzle: Same State NG 3)	2310	393	347			
UAGCUCGUGUGAGGAUAUGCCGCCGUUUCGGCUGCAGAAGGUGCUACGUUACAUGAGGAUCACCCAUGUCUCUGUUGUUUCGUC [salish99_SSNG1_r04_955] (Eterna round: R96, puzzle: Same State NG 1)		23.9				
AUAAGUUUGAUGCUCGUCUCUCCGUACAGACAUGAGGAUCACCCAUGUAGUCGGGAAGUAGCCCGGCCUGUAUGGCC [Magequ] (puzzle: Sensor for hsa-mir-208a)				15.2	15.7	14.4
CGAAAGAGGUGAGGAUAUGCAGAGGAUCACCCUGUAGAAGGCAUCAGGUGAGGAUAUGCAGAGGAUCACCCUGUAGAAGGCAUC [pwkr ssNG DX.12] (Eterna round: R96, puzzle: Same State NG 1)	151	336	596			
AGGAAGGAGGCUGAGGAUAUCGUAAGGAGGACAUGAGGAUCACCCAUGUGUAUAGGAUUGGAGGACGAGAAGGCAGAGGAGUGGG [JR_SS2_Sub049] (puzzle: Same State 2)				49.8	25	29.4
UUGAGGAAUUAAGGAUAUUGAGUACAUAUGUUUAACAUGAGGAUCACCCAUGUGGGUUGCGGUAUCGAGAAGGUAAAUUACAAG [Mat - same State NG 2 - JL mod - D74] (Eterna round: R96, puzzle: Same State NG 2)		97.8				
UUGCGGAAUUAAGGAUAUUGAGUACAUAUGUUUAACAUGAGGAUCACCCAUGUGGGUUGCGGUAUCGAGAAGGUAACUUACUAC [salish99_SSNG2_r04_803] (Eterna round: R96, puzzle: Same State NG 2)	110	80.5	102			
GGUAGGUUACUACCAAACAUGAGGAUCACCCAUGUAAGUGGGAAGGAUAUGGUACCUAUUUGGUACCAGAAGGUCCAAUUAAUU [Fiskers NG3ss - 3] (Eterna round: R96, puzzle: Same State NG 3)	228	111	720			
GGUAUCGGCACAGGAUAUGCUAUCCUUUGGGUAGCAGAAGGGUGGACAUGAGGAUCACCCAUGUAGGUGCCAGGGCGUGAGCCC [JL SSNG1 1.87] (Eterna round: R96, puzzle: Same State NG 1)	2490	26.3	3550			
GAGAGAGGGUGAGGAUAUUGAGUAAUAAUGAUACAAGAAGGCACAGACAUGAGGAUCACCCAUGUGGGAAUAAUCCAGAGAGAG [Parity 6 - Jieux - Same State NG 1] (Eterna round: R96, puzzle: Same State NG 1)	262	153	289			
GCCGCGUUUCGCGCCUACAUGAGGAUCACCCAUGUAUGUGGGCAGGAUAUCGUUUGCUUUGCAAACGAGAAGGGCUGUUGUGGC [salish99_SSNG3_R04_010] (Eterna round: R96, puzzle: Same State NG 3)	19.7	21.2	30			
CGUCGUUUGAUAGGAUAUCGCUAUACAUGAGGAUCACCCAUGUUUACCACGCUGGUUUUUCAUUCCGAGAAGGAUUCUGAUGUU [salish99_SSNG02_r04_021] (Eterna round: R96, puzzle: Same State NG 2)	34.7	26	36.1			
GUUACAUGAGGAUCACCCAUGUAUGUGUGGGAGUAAGUGUCUUAGGAUAUCUAUUAUUUAAUUAAAGAGAAGGAAGAUUGUUGU [JMF's solution 25] (Eterna round: R96, puzzle: Same State NG 3)	115	81.2	102			
GCUCGUAUGAUGACCGACAUGAGGAUCACCCAUGUGUGUCGGUAGGAUAUCUAUAUUAAGGAUAUAGAGAAGGGCCGAACGAGC [SameState NG3 #17] (Eterna round: R96, puzzle: Same State NG 3)	31.4	62.9	92.9			
AUAAAACAUGAGGAUCACCCAUGUCAACAAAGUCGAGGAUAUGGGCAAAUAAAAUAAGAACCAGAAGGCGAUUAAU [salish99_ss1_r3_035] (puzzle: Same State 1)				23.4	97.3	99
AGCUUGUGGGUAGGAUAUUUAGGAUAUGCGGAAGACUAAGUCUGUAGGUCACCUAACGCAGAAGGAGAGAAGGACCCUUCAGCA [pwkr ssNG2 2FMN + F9.30] (Eterna round: R96, puzzle: Same State NG 2)	353	21.1	91.3			
AAACGGCCGAACGGAGGGCCACAUGAGGAUCACCCAUGUACAUAGGAUAUCACGCCAACGAAGCGUGAGAAGGGUGAUUAAAAC [Anriusxees] (Eterna round: R96, puzzle: Same State NG 3)	341	4.64	104			
AGAAAAGUUUACGAGGAUAUGUUCCGCAUAACAUGAGGAUCACCCAUGUGAACAAGAAAGGCGACGCAGAAGGCGUGAGCAAAAG [Mat - Same State 2 - Mod of UCT - D98] (puzzle: Same State 2)				38.8	82.1	116
AAAUUACUCCGAGGAUAUGCAUGGCUUUGUGCCGCAGAAGGUGGAUCGACGGACAUGAGGAUCACCCAUGUACACUGUCCUAUA [Gerite] (Eterna round: R96, puzzle: Same State NG 1)	26.4	34.7	46.9			
CUGAGCGAUCGAGGAUAUCACGUCGAUUAGACGUGAGAAGGCGAUCAUAACAUGAGGAUCACCCAUGUAUUACAUGAAGCUCAG [SSNG1/4-A2] (Eterna round: R96, puzzle: Same State NG 1)	17.1	12.9	15.8			
UUUGGGUGGCUGGAGGAUAUCCUUGUGGUUACAUGAGGAUCACCCAUGUGCCGCGCGGUGCGCGAGGAGAAGGCUGGCGGCCGUU (puzzle: Same State 2)				26	79.5	151
GCUAGAAAUAAAGCCAACAUGAGGAUCACCCAUGUAUGUUGGUAGGAUAUCGUAUGCAAAGCAUACGAGAAGGGCUAAACUAGC [Mat - Same State NG 3 - JL Mod - D18] (Eterna round: R96, puzzle: Same State NG 3)	91.6	77.5	93.7			

— the supplement of paper PMC9170038
